T1: EsCas13d, nuclease-dead (Eubacterium siraeum, UniProt B0MS50, R295A;H300A;R849A;H854A)
T1 sequence: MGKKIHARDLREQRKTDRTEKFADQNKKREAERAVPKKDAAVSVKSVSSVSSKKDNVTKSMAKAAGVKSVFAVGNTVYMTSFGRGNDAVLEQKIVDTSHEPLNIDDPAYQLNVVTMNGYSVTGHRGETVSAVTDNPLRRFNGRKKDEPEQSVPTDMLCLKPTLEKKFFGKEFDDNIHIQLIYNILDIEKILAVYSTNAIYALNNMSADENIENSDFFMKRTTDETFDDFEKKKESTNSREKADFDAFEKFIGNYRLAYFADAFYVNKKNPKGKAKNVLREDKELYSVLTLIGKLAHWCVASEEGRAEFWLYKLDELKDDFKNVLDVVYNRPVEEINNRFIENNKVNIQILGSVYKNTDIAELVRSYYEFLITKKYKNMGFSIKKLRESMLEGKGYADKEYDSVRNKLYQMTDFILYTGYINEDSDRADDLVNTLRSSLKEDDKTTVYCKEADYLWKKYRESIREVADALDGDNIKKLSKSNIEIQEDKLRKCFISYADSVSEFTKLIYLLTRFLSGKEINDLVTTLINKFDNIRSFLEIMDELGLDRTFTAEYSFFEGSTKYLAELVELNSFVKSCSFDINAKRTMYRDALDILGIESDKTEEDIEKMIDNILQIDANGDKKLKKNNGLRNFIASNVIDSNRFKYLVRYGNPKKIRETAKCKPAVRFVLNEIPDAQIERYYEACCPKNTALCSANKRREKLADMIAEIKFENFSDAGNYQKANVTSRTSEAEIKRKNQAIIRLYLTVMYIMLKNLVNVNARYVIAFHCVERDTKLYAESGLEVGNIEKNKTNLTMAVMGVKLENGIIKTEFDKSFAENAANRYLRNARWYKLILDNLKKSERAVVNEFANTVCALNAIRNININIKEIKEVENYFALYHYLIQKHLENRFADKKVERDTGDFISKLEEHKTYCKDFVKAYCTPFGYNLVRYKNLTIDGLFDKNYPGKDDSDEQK


molecular target: T1, EsCas13d, nuclease-dead; experiment: crRNA (strand 1, pre-loaded); Mg2+; 40 mM Tris-HCl pH 7.5, 150 mM NaCl, 6 mM MgCl2, 1 mM DTT, 0.1% Tween-20, 0.2 mg/ml BSA; 25 C; 10 min per concentration, then washed; details: tags: His6-TwinStrep-SUMO cleaved; N-terminal SNAP kept (SNAP-Surface 488); label: 3' end held by stalled T7 RNA polymerase

Row | Binder | Kd [nM]
1 | target 1 MT 5'PFS UCA 3'PFS CGA (mixed) RNA 1: CACCCGUGCAAAAAUGCAGGGGUCUAAAACUGAGCGGAUAACCUCUCUAUGG RNA 2: GGGAAUGGAUCCACAUCUACGAAUUCUCACCAUAGAGAGGUUAUCCGCUCACGAAGAUCGGAAGAGCACACGU | 12.2 ± 3.45
2 | target 1 MT 5'PFS CCA 3'PFS UGC (mixed) RNA 1: CACCCGUGCAAAAAUGCAGGGGUCUAAAACUGAGCGGAUAACCUCUCUAUGG RNA 2: GGGAAUGGAUCCACAUCUACGAAUUCCCACCAUAGAGAGGUUAUCCGCUCAUGCAGAUCGGAAGAGCACACGU | 3.55 ± 0.8
3 | target 1 MT 5'PFS AGU 3'PFS ACG (mixed) RNA 1: CACCCGUGCAAAAAUGCAGGGGUCUAAAACUGAGCGGAUAACCUCUCUAUGG RNA 2: GGGAAUGGAUCCACAUCUACGAAUUCAGUCCAUAGAGAGGUUAUCCGCUCAACGAGAUCGGAAGAGCACACGU | 36 ± 10
4 | target 1 MT 5'PFS GGC 3'PFS CAU (mixed) RNA 1: CACCCGUGCAAAAAUGCAGGGGUCUAAAACUGAGCGGAUAACCUCUCUAUGG RNA 2: GGGAAUGGAUCCACAUCUACGAAUUCGGCCCAUAGAGAGGUUAUCCGCUCACAUAGAUCGGAAGAGCACACGU | 15.7 ± 5.5
5 | target 1 MT 5'PFS UAG 3'PFS AGG (mixed) RNA 1: CACCCGUGCAAAAAUGCAGGGGUCUAAAACUGAGCGGAUAACCUCUCUAUGG RNA 2: GGGAAUGGAUCCACAUCUACGAAUUCUAGCCAUAGAGAGGUUAUCCGCUCAAGGAGAUCGGAAGAGCACACGU | 65.5 ± 15
6 | target 1 MT 5'PFS GGG 3'PFS UAC (mixed) RNA 1: CACCCGUGCAAAAAUGCAGGGGUCUAAAACUGAGCGGAUAACCUCUCUAUGG RNA 2: GGGAAUGGAUCCACAUCUACGAAUUCGGGCCAUAGAGAGGUUAUCCGCUCAUACAGAUCGGAAGAGCACACGU | 16.8 ± 2.75
7 | target 1 MT 5'PFS CCA 3'PFS UGA (mixed) RNA 1: CACCCGUGCAAAAAUGCAGGGGUCUAAAACUGAGCGGAUAACCUCUCUAUGG RNA 2: GGGAAUGGAUCCACAUCUACGAAUUCCCACCAUAGAGAGGUUAUCCGCUCAUGAAGAUCGGAAGAGCACACGU | 13 ± 4.5
8 | target 1 MT 5'PFS GGC 3'PFS CAA (mixed) RNA 1: CACCCGUGCAAAAAUGCAGGGGUCUAAAACUGAGCGGAUAACCUCUCUAUGG RNA 2: GGGAAUGGAUCCACAUCUACGAAUUCGGCCCAUAGAGAGGUUAUCCGCUCACAAAGAUCGGAAGAGCACACGU | ~34
9 | target 1 MT 5'PFS GCC 3'PFS UUC (mixed) RNA 1: CACCCGUGCAAAAAUGCAGGGGUCUAAAACUGAGCGGAUAACCUCUCUAUGG RNA 2: GGGAAUGGAUCCACAUCUACGAAUUCGCCCCAUAGAGAGGUUAUCCGCUCAUUCAGAUCGGAAGAGCACACGU | 17 ± 5.5
10 | target 1 C2G,U10G (mixed) RNA 1: CACCCGUGCAAAAAUGCAGGGGUCUAAAACUGAGCGGAUAACCUCUCUAUGG RNA 2: GGGAAUGGAUCCACAUCUACGAAUUCGUACCAUAGAGAGGUGAUCCGCUGACCGAGAUCGGAAGAGCACACGU | 42 ± 7
11 | target 1 MT 5'PFS GCC 3'PFS UUA (mixed) RNA 1: CACCCGUGCAAAAAUGCAGGGGUCUAAAACUGAGCGGAUAACCUCUCUAUGG RNA 2: GGGAAUGGAUCCACAUCUACGAAUUCGCCCCAUAGAGAGGUUAUCCGCUCAUUAAGAUCGGAAGAGCACACGU | 12.5 ± 3.7
12 | target 1 MT 5'PFS GGG 3'PFS UAA (mixed) RNA 1: CACCCGUGCAAAAAUGCAGGGGUCUAAAACUGAGCGGAUAACCUCUCUAUGG RNA 2: GGGAAUGGAUCCACAUCUACGAAUUCGGGCCAUAGAGAGGUUAUCCGCUCAUAAAGAUCGGAAGAGCACACGU | 17.4 ± 2.8
13 | target 1 MT 5'PFS GUU 3'PFS AUU (mixed) RNA 1: CACCCGUGCAAAAAUGCAGGGGUCUAAAACUGAGCGGAUAACCUCUCUAUGG RNA 2: GGGAAUGGAUCCACAUCUACGAAUUCGUUCCAUAGAGAGGUUAUCCGCUCAAUUAGAUCGGAAGAGCACACGU | 13.9 ± 2.3
14 | target 1 MT 5'PFS UCA 3'PFS CGU (mixed) RNA 1: CACCCGUGCAAAAAUGCAGGGGUCUAAAACUGAGCGGAUAACCUCUCUAUGG RNA 2: GGGAAUGGAUCCACAUCUACGAAUUCUCACCAUAGAGAGGUUAUCCGCUCACGUAGAUCGGAAGAGCACACGU | 18.5 ± 6.5
15 | target 1 MT 5'PFS GGG 3'PFS UAG (mixed) RNA 1: CACCCGUGCAAAAAUGCAGGGGUCUAAAACUGAGCGGAUAACCUCUCUAUGG RNA 2: GGGAAUGGAUCCACAUCUACGAAUUCGGGCCAUAGAGAGGUUAUCCGCUCAUAGAGAUCGGAAGAGCACACGU | 16.1 ± 2.1
16 | target 1 MT 5'PFS GCC 3'PFS UUG (mixed) RNA 1: CACCCGUGCAAAAAUGCAGGGGUCUAAAACUGAGCGGAUAACCUCUCUAUGG RNA 2: GGGAAUGGAUCCACAUCUACGAAUUCGCCCCAUAGAGAGGUUAUCCGCUCAUUGAGAUCGGAAGAGCACACGU | 8.2 ± 1.1
17 | target 1 MT 5'PFS AGU 3'PFS ACC (mixed) RNA 1: CACCCGUGCAAAAAUGCAGGGGUCUAAAACUGAGCGGAUAACCUCUCUAUGG RNA 2: GGGAAUGGAUCCACAUCUACGAAUUCAGUCCAUAGAGAGGUUAUCCGCUCAACCAGAUCGGAAGAGCACACGU | ~80
18 | target 1 insG 3' of 22,insG 3' of 6 (mixed) RNA 1: CACCCGUGCAAAAAUGCAGGGGUCUAAAACUGAGCGGAUAACCUCUCUAUGG RNA 2: GGGAAUGGAUCCACAUCUACGAAUUCGUACGCAUAGAGAGGUUAUCCGGCUCACCGAGAUCGGAAGAGCACACGU | 51 ± 10
19 | target 1 MT 5'PFS AGU 3'PFS ACU (mixed) RNA 1: CACCCGUGCAAAAAUGCAGGGGUCUAAAACUGAGCGGAUAACCUCUCUAUGG RNA 2: GGGAAUGGAUCCACAUCUACGAAUUCAGUCCAUAGAGAGGUUAUCCGCUCAACUAGAUCGGAAGAGCACACGU | 38 ± 11
20 | target 1 MT 5'PFS GGG 3'PFS UAU (mixed) RNA 1: CACCCGUGCAAAAAUGCAGGGGUCUAAAACUGAGCGGAUAACCUCUCUAUGG RNA 2: GGGAAUGGAUCCACAUCUACGAAUUCGGGCCAUAGAGAGGUUAUCCGCUCAUAUAGAUCGGAAGAGCACACGU | 16.7 ± 3.25
21 | target 1 MT 5'PFS AGU 3'PFS ACA (mixed) RNA 1: CACCCGUGCAAAAAUGCAGGGGUCUAAAACUGAGCGGAUAACCUCUCUAUGG RNA 2: GGGAAUGGAUCCACAUCUACGAAUUCAGUCCAUAGAGAGGUUAUCCGCUCAACAAGAUCGGAAGAGCACACGU | 65 ± 29
22 | target 1 MT 5'PFS GGA 3'PFS CUG (mixed) RNA 1: CACCCGUGCAAAAAUGCAGGGGUCUAAAACUGAGCGGAUAACCUCUCUAUGG RNA 2: GGGAAUGGAUCCACAUCUACGAAUUCGGACCAUAGAGAGGUUAUCCGCUCACUGAGAUCGGAAGAGCACACGU | 11.3 ± 1.9
23 | target 1 insU 3' of 14,insA 3' of 8 (mixed) RNA 1: CACCCGUGCAAAAAUGCAGGGGUCUAAAACUGAGCGGAUAACCUCUCUAUGG RNA 2: GGGAAUGGAUCCACAUCUACGAAUUCGUACCAUAGAGAUGGUUAUACCGCUCACCGAGAUCGGAAGAGCACACGU | 38.6 ± 3.2
24 | target 1 MT 5'PFS UAA 3'PFS AUC (mixed) RNA 1: CACCCGUGCAAAAAUGCAGGGGUCUAAAACUGAGCGGAUAACCUCUCUAUGG RNA 2: GGGAAUGGAUCCACAUCUACGAAUUCUAACCAUAGAGAGGUUAUCCGCUCAAUCAGAUCGGAAGAGCACACGU | 33 ± 10
25 | target 1 MT 5'PFS UAA 3'PFS AUA (mixed) RNA 1: CACCCGUGCAAAAAUGCAGGGGUCUAAAACUGAGCGGAUAACCUCUCUAUGG RNA 2: GGGAAUGGAUCCACAUCUACGAAUUCUAACCAUAGAGAGGUUAUCCGCUCAAUAAGAUCGGAAGAGCACACGU | 47 ± 13.5
26 | target 1 MT 5'PFS GGA 3'PFS CUU (mixed) RNA 1: CACCCGUGCAAAAAUGCAGGGGUCUAAAACUGAGCGGAUAACCUCUCUAUGG RNA 2: GGGAAUGGAUCCACAUCUACGAAUUCGGACCAUAGAGAGGUUAUCCGCUCACUUAGAUCGGAAGAGCACACGU | 13 ± 4.5
27 | target 1 MT 5'PFS UAA 3'PFS AUG (mixed) RNA 1: CACCCGUGCAAAAAUGCAGGGGUCUAAAACUGAGCGGAUAACCUCUCUAUGG RNA 2: GGGAAUGGAUCCACAUCUACGAAUUCUAACCAUAGAGAGGUUAUCCGCUCAAUGAGAUCGGAAGAGCACACGU | 57.5 ± 16
28 | target 1 insA 3' of 19,insA 3' of 7 (mixed) RNA 1: CACCCGUGCAAAAAUGCAGGGGUCUAAAACUGAGCGGAUAACCUCUCUAUGG RNA 2: GGGAAUGGAUCCACAUCUACGAAUUCGUACCAUAAGAGAGGUUAUCACGCUCACCGAGAUCGGAAGAGCACACGU | 15.2 ± 1.4
